The target in this assay is Echovirus 3 (E3) mature full (F-) particle, genotype HNWY-01 strain (Echovirus 3 (genotype HNWY-01 strain)). Briefly: SPR. (In SPR one partner is held on a chip, and binding of the other changes the refractive index at the surface.)

B1: monoclonal antibody 6D10 IgG (antibody, V domains shown)
VH: EVQLQQSGPELARPWASVKISCQAFYTFSNYGMQWVKQSPGQGLEWIGPFYPGNADTSYNQKFKGKATLTADKSSSTAYMQFSSLTSEDSAVYYCARVVATTDFDYWGQGTTVTVSS
VL: not shown
A word on the koff: it is the first-order rate constant of dissociation. Low values mean a long-lived complex, high ones a short-lived complex. B1: the koff is 5.1e-05 s⁻¹.

(Values after publication PMC9692665 (2022).)
